Test results reported in US20220356245A1 (FORTY SEVEN, published 2022).
Like-named read-outs stand apart in the source and are kept apart here.

How the values were obtained:
[1] = molecular target: T1, human CD47 (hCD47) expressed on cells (human, UniProt Q08722 19-323); assay: flow cytometry on Raji cells, hIgG4 format, delta MFI
T1 construct: Transfected CHO cells or endogenous CD47 of human cells; also called CHO-hCD47; CD47 on Raji cells

[2] = molecular target: T1, human CD47 (hCD47) expressed on cells; assay: flow cytometry, Raji cells, competition with hSIRPα
[3] = molecular target: T1, human CD47 (hCD47) expressed on cells; assay: flow cytometry, Raji cells
[4] = molecular target: T1, human CD47 (hCD47) expressed on cells; assay: flow cytometry on Raji cells, hIgG4 format: inhibition of hSIRPα binding to hCD47
[5] = molecular target: T2, hu-sCD47-6His; extracellular domain of human CD47 antigen with 6His-tag (human); assay: SPR Biacore
T2 construct: also called hCD47-his; soluble hCD47
From the text: (§1) An anti-human or anti-mouse IgG (Fc) was first immobilized on the surface of Serie S Sensor Chips CM5 using the human or mouse antibody capture and amine coupling kits, following the manufacturer's instructions (GE Healthcare). […] The mouse, chimerized or humanized antibodies to be tested were then captured onto the appropriate anti-mouse or anti-human IgG surface in all flow cells except flow cell 1 used as control, at concentration and contact time adjusted so that ˜300 RU were captured on the surface. Binding kinetics were studied by passing increasing concentrations of hCD47-his in a series of five 10 minute injections through all flow cells at a rate of 30 μL/min. […] Following the final injection, buffer was passed across each flow cell for 60 minutes (mouse) or 30 minutes (human) to monitor the dissociation of bound antigen. Regeneration of the binding surface was carried out at the end of the cycle by flowing 3 M MgCl₂ for 60 s at 20 μL/min followed by 10 mM glycine-HCl, pH 1.7 for 180 s at 10 μl/min (for human) or by flowing 10 mM glycine-HCl, ph 1.7 for 360 s at 10 μl/min (for mouse). A second cycle with the same antibodies but no antigen was run as a control. Kinetics binding constants were estimated by non-linear fitting of the sensogram data to the 1:1 binding model provided by the Biacore T200 evaluation software.

[6] = molecular target: T3, N-deglycosylated soluble hCD47-His (PNGase treated) (human, N-glycans removed with PNGase); assay: ELISA, one-site binding saturation fit, deglycosylated hCD47
T3 construct: also called deglycosylated-hCD47; N-Deglycosylated hCD47-His
Method: (§2) The Bmax values were calculated by using the binding saturation/one-site binding model of the GraphPad Prism software (mean +/− SD of triplicates).

[7] = molecular target: T2, hu-sCD47-6His; extracellular domain of …; assay: ELISA, one-site binding saturation fit, glycosylated hCD47
Method: as §2

[8] = molecular target: T3, N-deglycosylated soluble hCD47-His …; assay: ELISA; against glycosylated hCD47-His
Method: (§3) The EC50 and EC95 values were calculated by using the non-linear regression/log (antibody) versus response (four parameters) model of the GraphPad Prism software.

[9] = molecular target: T3, N-deglycosylated soluble hCD47-His …; assay: ELISA, one-site binding saturation fit, deglycosylated hCD47; remark: listed apart in the source
Method: (§4) The equilibrium binding constant values were calculated by using the binding saturation/one-site binding model of the GraphPad Prism software (mean +/− SD of triplicates).

[10] = molecular target: T2, hu-sCD47-6His; extracellular domain of …; assay: ELISA, coated glycosylated hCD47-His
Method: as §3

[11] = molecular target: T2, hu-sCD47-6His; extracellular domain of …; assay: ELISA, one-site binding saturation fit, glycosylated hCD47; remark: listed apart in the source
Method: as §4

[12] = molecular target: T3, N-deglycosylated soluble hCD47-His …; assay: ELISA, coated N-deglycosylated hCD47-His
[13] = molecular target: T1, human CD47 (hCD47) expressed on cells; assay: flow cytometry on Raji cells, hIgG4 format: inhibition of hSIRPα binding to hCD47; remark: listed apart in the source
[14] = molecular target: T1, human CD47 (hCD47) expressed on cells; assay: flow cytometry on Raji cells, hIgG4 format, delta MFI; remark: listed apart in the source
[15] = molecular target: T1, human CD47 (hCD47) expressed on cells; assay: as above; remark: listed apart in the source
[16] = molecular target: T1, human CD47 (hCD47) expressed on cells; assay: flow cytometry on Raji cells, hIgG4 format: inhibition of hSIRPα binding to hCD47; remark: listed apart in the source
[17] = molecular target: T1, human CD47 (hCD47) expressed on cells; assay: flow cytometry, Raji cells; remark: listed apart in the source
[18] = molecular target: T2, hu-sCD47-6His; extracellular domain of …; assay: SPR Biacore; remark: listed apart in the source
From the text: as §1

[19] = molecular target: T1, human CD47 (hCD47) expressed on cells; assay: flow cytometry, Raji cells, competition with hSIRPα; remark: listed apart in the source
[20] = molecular target: T1, human CD47 (hCD47) expressed on cells; assay: flow cytometry, Raji cells, competition with His-hSIRPα
Method: (§5) The percent inhibition was plotted against antibody concentration and the IC50 values were calculated by using a nonlinear regression analysis model of the GraphPad Prism software.

[21] = molecular target: T1, human CD47 (hCD47) expressed on cells; assay: flow cytometry, Raji cells, competition with His-hSIRPα; lower end tied to candidates 14 and 15 by Table 7
Method: as §5

Row | IC50 [2] | EC50 [3] | Kd [5] | koff [5] | kon [5] | Bmax2 [6] | Bmax [7] | EC50 ratio Deglycosylated/Glycosylated [8] | EC95 ratio Deglycosylated/Glycosylated [8] | equilibrium binding constant [9] | EC50 [10] | EC95 [10] | equilibrium binding constant [11] | EC50 [12] | EC95 [12] | IC50 [20] | IC50 [21] | Binder | further results
1 | 0.101 µg/mL | 0.0854 µg/mL | 2.06 nM | 0.000584 s⁻¹ | 292000 M⁻¹ s⁻¹ | – | – | – | – | – | – | – | – | – | – | – | – | h20-H3-L2Y (candidate 20.27), hIgG4-S228P (antibody, V domains shown, also called H20-VH3-VL2,Y) VH: QVQLVQSGAEVKKPGASVKVSCKASGYSFTDYYINWVRQAPGQGLEWMGRIYPGIGNTYYNKKFKGRVTVTRDTSISTAHMELSSLRSDDTAVYYCARGHYGRGMDYWGQGTAVTVSS VL: DIVMTQSPDSLAVSLGERATINCKSSQSLLNSIDQKNYLAWYQQKPGQPPKLLIYYASTKESGVPDRFSGSGSGTDFTLTISSLQAEDVAVYYCQQHYSTPWTFGGGTKVEIKR | EC50 (read off the curve) [1]: ~0.1 µg/mL; IC50 (read off the curve) [4]: ~0.2 µg/mL
2 | 0.113 µg/mL | 0.0975 µg/mL | 2.32 nM | 0.000699 s⁻¹ | 306000 M⁻¹ s⁻¹ | 1.97 OD value | 2.85 OD value | 2.2 ratio | 8.5 ratio | 55.7 pM | 0.044 nM | 1.33 nM | 43.6 pM | 0.096 nM | 11.3 nM | – | – | h20-H2-L5Y (candidate 20.26), huIgG4_S228P format (antibody, V domains shown, also called H20-VH2-VL5,Y; h2O-H2L5Y) VH: QVQLVQSGAEVKKPGASVKVSCKASGYSFTDYYINWVRQAPGQGLEWMGRIYPGIGNTYYNKKFKGRVTITRDTSASTAYMELSSLRSEDTAVYYCARGHYGRGMDYWGQGTLVTVSS VL: DIVMTQSPDSLAVSLGERATINCKSSQSLLNSIDQKNYLAWYQQKPGQPPKLLIYYASTKESGVPDRFSGSGSGTDFTLTISGLQAEDVAVYFCQQHYSTPWTFGGGTKVEIRR | IC50 (read off the curve) [13]: ~0.2 µg/mL; EC50 (read off the curve) [14]: ~0.1 µg/mL
3 | 0.149 µg/mL | 0.105 µg/mL | 2.82 nM | 0.000693 s⁻¹ | 254000 M⁻¹ s⁻¹ | – | – | – | – | – | – | – | – | – | – | – | – | h20-H4-L5Y (candidate 20.30), hIgG4-S228P (antibody, V domains shown, also called H20-VH4-VL5,Y) VH: QVQLVQSGAEVKKPGSSVKVSCKASGYSFTDYYINWVRQAPGQGLEWMGRIYPGIGNTYYNKKFKGRVTITADKSTSTAYMELSSLRSEDTAVYYCARGHYGRGMDYWGQGTTVTVSS VL: DIVMTQSPDSLAVSLGERATINCKSSQSLLNSIDQKNYLAWYQQKPGQPPKLLIYYASTKESGVPDRFSGSGSGTDFTLTISGLQAEDVAVYFCQQHYSTPWTFGGGTKVEIRR | EC50 (read off the curve) [15]: ~0.1 µg/mL; IC50 (read off the curve) [16]: ~0.3 µg/mL
4 | – | – | – | – | – | 2.57 OD value | 2.85 OD value | 1.1 ratio | 1.4 ratio | 31.8 pM | 0.0387 nM | 4.67 nM | 34.4 pM | 0.042 nM | 6.67 nM | – | – | hIgG4 chimeric candidate 22 (mouse VH/VL, human Fcγ4-S228P and human Kappa backbone) (antibody, V domains shown, hIgG4-S228P/kappa; also called Chim; 22) VH: QVQLQQPGAELVKPGASVKLSCKASGYTFTTYWMHWVKQRPGQGLEWIGMIHPNSGTTNYNEKFKSKATLTVDKSSSSTYMQLSSLTSEDSAVYYCTRSHYYDGHFSYWGQGTLVTVSA VL: DIVMSQSPSSLAVSAGEKVTMSCKSSQSLLNSRTRKNYLAWYQQKPGQSPKLLIYWASTRESGVPDRFTGSGSGTDFTLTISSVQAEDLAVYYCKQSYNLWTFGGGTRLEIKR | EC50 [17]: 0.122 µg/mL; Kd [18]: 12.2 nM; koff [18]: 0.000381 s⁻¹; kon [18]: 31200 M⁻¹ s⁻¹; IC50 [19]: 0.14 µg/mL
5 | – | – | – | – | – | – | – | – | – | – | – | – | – | – | – | 0.021 µg/mL | 0.14 nM | Candidate 14, chimeric hIgG format (hIgG1 or hIgG4) (antibody, V domains shown, also called Candidate 14 (hIgG format)) VH: QVQLQQPGAELVKPGASLRVSCKASGYTFTNYWMYWVRQRPGRGLEWIGWIDPNSGGTKYNEKFKSKATLTVDKPSSTAYMQLSSLTSEDSAVYNCARGGYTMDYWGQGTSVTVSS VL: DVVMTQTPLSLPVSLGDQASISCRASQSLVHSNGNTYLHWYLQKPGQSPKLLIYKVSNRFSGVPDRFSGSGSGTDFTLKISRVEAEDLGVYFCSQSTHVPLTFGAGTKLELK | –
6 | – | – | – | – | – | – | – | – | – | – | – | – | – | – | – | 0.021 µg/mL | 0.14 nM | Candidate 15, chimeric hIgG format (hIgG1 or hIgG4) (antibody, V domains shown, also called Candidate 15 (hIgG format)) VH: QVQLQQPGAELVKPGTSVKLSCKASGYTFINYWIHWVKQRPGRGLEWIGRIDPNTVDAKYNEKFKSKATLTVDKPSSIAYMQLSSLTSEDSAVYYCSRGGYTMDYWGQGTSVTVSS VL: DVVMTQTPLSLPVSLGDQASISCRSSQSLVHSNGNTYLHWYLQKPGQSPTLLIYKVSNRFSGVPDRFSGSGSGTDFTLKISRVEAEDLGIYFCFQSTHVPWTFGGGTKLEIK | –
